Measurements as given in article PMC12559229, “Conserved hydrophilic checkpoints tune FocA-mediated formate:H^+ symport” (Nature Communications, 2025).
Ends that are not written are not given here. GS linker = not defined here

Columns and labels:
[1] = molecular target: T1, Pyruvate formate-lyase (PflB), full length, His-tagged (E. coli, UniProt P09373 1-760); assay: cross-linking; XL-MS with sulfo-SDA: 10 uM FocA modified with 50-fold sulfo-SDA (100 mM MOPS, 150 mM NaCl, DDM, pH 7.0), then mixed with 10 uM PflB and UV-irradiated (365 nm); digest with trypsin and GluC, LC/MS/MS; conditions: both partners purified
T1 construct: Pyruvate formate-lyase PflB, E. coli, UniProt P09373, full length; also called His-tagged PflB
T1 sequence (looked up): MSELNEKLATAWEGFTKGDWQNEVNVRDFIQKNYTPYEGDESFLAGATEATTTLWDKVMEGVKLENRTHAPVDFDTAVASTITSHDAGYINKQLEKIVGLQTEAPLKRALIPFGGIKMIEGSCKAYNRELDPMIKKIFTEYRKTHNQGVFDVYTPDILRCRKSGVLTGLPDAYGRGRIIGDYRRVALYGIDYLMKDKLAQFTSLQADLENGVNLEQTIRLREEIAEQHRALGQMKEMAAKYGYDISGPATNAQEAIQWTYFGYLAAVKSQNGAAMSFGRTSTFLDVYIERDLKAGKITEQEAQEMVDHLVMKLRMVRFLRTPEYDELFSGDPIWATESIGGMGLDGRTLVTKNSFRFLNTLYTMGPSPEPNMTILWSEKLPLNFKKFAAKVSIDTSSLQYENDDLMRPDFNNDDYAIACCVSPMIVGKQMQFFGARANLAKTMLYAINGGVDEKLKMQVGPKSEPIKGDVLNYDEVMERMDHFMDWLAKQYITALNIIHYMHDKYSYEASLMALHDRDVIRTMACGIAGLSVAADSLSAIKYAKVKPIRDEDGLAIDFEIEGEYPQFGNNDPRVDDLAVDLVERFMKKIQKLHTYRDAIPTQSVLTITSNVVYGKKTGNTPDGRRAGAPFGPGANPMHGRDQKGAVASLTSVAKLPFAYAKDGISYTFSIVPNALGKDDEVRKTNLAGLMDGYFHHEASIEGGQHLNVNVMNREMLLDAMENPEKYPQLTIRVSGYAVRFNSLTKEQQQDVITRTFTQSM

[2] = molecular target: the molecule itself; assay: cryo-EM structure; purified StrepII-tagged FocA solubilised in DDM, 5 mg/mL, vitrified at 4 °C; single-particle reconstruction with C5 symmetry (wild type also C1)
[3] = molecular target: T1, Pyruvate formate-lyase (PflB), full …; assay: cross-linking; XL-MS with DSBU: 10 uM PflB with equimolar FocA N-terminal peptide, 50- or 100-fold DSBU, 30 min, room temperature, 100 mM MOPS, 150 mM NaCl, pH 7.0; digest with trypsin and GluC, LC/MS/MS; conditions: both partners purified

B1: FocA (formate channel), wild type, full length, C-terminal StrepII-tag (natural protein, E. coli, UniProt P0AC23 1-285, looked up)
chain: MKADNPFDLLLPAAMAKVAEEAGVYKATKHPLKTFYLAITAGVFISIAFVFYITATTGTGTMPFGMAKLVGGICFSLGLILCVVCGADLFTSTVLIVVAKASGRITWGQLAKNWLNVYFGNLVGALLFVLLMWLSGEYMTANGQWGLNVLQTADHKVHHTFIEAVCLGILANLMVCLAVWMSYSGRSLMDKAFIMVLPVAMFVASGFEHSIANMFMIPMGIVIRDFASPEFWTAVGSAPENFSHLTVMNFITDNLIPVTIGNIIGGGLLVGLTYWVIYLRENDHH
notes: FocA, formate channel of the formate-nitrite transporter family, E. coli, UniProt P0AC23, full length; Pentamer in the cryo-EM structure; In the sulfo-SDA experiment FocA was first modified on amines with sulfo-SDA; also called native FocA; wild-type FocA; source: E. coli BL21(DE3) transformed with pfocA3; solubilised from membranes with DDM, purified (Strep-Tactin Sepharose); not shown: StrepII, …
binding result [1]: binds | stoichiometry N [2]: 5

B2: FocA-H209N variant, C-terminal StrepII-tag (natural protein, E. coli, UniProt P0AC23 1-285, looked up)
chain: MKADNPFDLLLPAAMAKVAEEAGVYKATKHPLKTFYLAITAGVFISIAFVFYITATTGTGTMPFGMAKLVGGICFSLGLILCVVCGADLFTSTVLIVVAKASGRITWGQLAKNWLNVYFGNLVGALLFVLLMWLSGEYMTANGQWGLNVLQTADHKVHHTFIEAVCLGILANLMVCLAVWMSYSGRSLMDKAFIMVLPVAMFVASGFENSIANMFMIPMGIVIRDFASPEFWTAVGSAPENFSHLTVMNFITDNLIPVTIGNIIGGGLLVGLTYWVIYLRENDHH
notes: FocA, E. coli, UniProt P0AC23, with the exchange H209N; made by mutagenesis of pfocA3, which carries the native focA gene; Reconstructed with C5 symmetry; also called H209N-FocA; source: E. coli BL21(DE3) transformed with pfocAH209N; solubilised from membranes with DDM, purified (Strep-Tactin Sepharose); not shown: StrepII, C-terminal, kept
binding result [2]: binds

B3: FocA N-terminal peptide (residues 1-35 of FocA, GS linker, Strep-II tag) (peptide)
peptide: MKADNPFDLLLPAAMAKVAEEAGVYKATKHPLKTF-{GS linker-Strep‑II tag}
modifications: reading uncertain
notes: FocA, E. coli, residues 1-35 (the N-terminus of FocA); Whole peptide as printed, 45 residues: [residues removed]; also called N-terminal FocA peptide (1-45); N-terminal peptide of FocA; source: synthetic peptide (Thermo Fisher); not shown: StrepII (after a GS linker), C-terminal, kept
binding result [3]: binds
